This data set in a line: label from the status in PepcDB records.
On to “MVLIYCYKYFHEFMEAFDRIQKNIMEAHMKKVIGAATATVFGLGAFTTTATAETIVTADVLNVREKPTTESKVVEKVKNGQELKVINTEDGWSKIELNGKEVFVSSEFTKDIYHVTANLLNVRTEANTESKILGRLKKDDVIESTNQVKDGWLQFEYKGKTAYVNVSFLSSTAPVEKKADEKTKQVAKVQKMVKAKEEAKTQKVTKAKETIKPKEEEKVQEVVKPKEEEKVQEVVKPKEEEKVQEVVKPKEEEKIQEVAKPKEEAKVQEVAKPKEEEKVQEVAKPKEEEKVQEVVKPKEEEKVQEVAKSKEEAKVQEVAKPKEEAKVQEVVKPKEEAKVQEEAKAQEIAKAKEEAKAQEIAKAKEEEKAREIAKAKEEAKAQEIAKAKEEAKAQEIAKAKEEAKAQEIAKAKEEEKAREIAKAKEEAKAQEIAKAKEEAKAREIAKAKEEAKAREAIKAKEESKNNTQSAKRELTVVATAYTADPSENGTYGGRVLTAMGHDLTANPNMRIIAVDPKVIPLGSKVWVEGYGEAIAGDTGSAIKGNRIDVLMGSKSKAMDWGRQTVKVKIL”, for which the protein production result is “failed”.
On to “MRDTTWHVPEDDLRAYVQGELAPPRLWSADTHLAACERCRAALAEAGDPVALDAAWERLDAELDAPRPGMFESLLVRAGVADHTARLLTATPVLRRSWLGAVAFLLVMTVGIVLTVDSPALFLALAPLLPLAGVALSYGPVLDPTYEMAVVAPLHGFRLLLIRTLAVLATGLLLNGLATLALPGYGLRALAWLLPALALTGTGLALTPRLGPVLAPALTGGAWIGLLLVAQARTHETLAPFTMAGQGAAAVVAALAAGLLYRTRDRFDSVAARLPFAHLPGGGAV”, for which the protein production result is “failed”.
For the sequence QKEKCFKCNKCEKTFSCSKYLTQHERIHTRGVK, the protein production entry is reported as “not failed”.
In the case of “MSNDTPFDALWQRMLARGWTPVSESRLDDWLTQAPDGVVLLSSDPKRTPEVSDNPVMIGELLHEFPDYTWQVAIADLEQSEAIGDRFGAFRFPATLVFTGGNYRGVLNGIHPWAELINLMRGLVEPQQERASLEHHHHHH”, the protein production result was “not failed”.
The result for “MKISVIISNYNYARYLSRAINSVLAQTHSDIEIVIVDDGSTDNSRDVITQLQEQAPDKIKPIFQANQGQGGAFNAGFAAATGEVVAFLDADDVWKPHKLQRIVEVFQTSDVVGVMHHLDIIDGNDKTIDQASTQGPKLSEDLASVILQTGNAWCFPPTSGLAYRREVLEKVFPIDPVKWRIWADGCIIYCTAFLGKIKTLQENLAYYRIHGANNHMSAASATSEQEAKSQAGIEMTNQYINDFLVRIGYGARVDLSRNLQYRRTKYYQRSQWDLREVWGISRLILGWPFYSGQERAYYLARFLFKSGKFLLRSDVHTESTTI” reads “failed”.
With “MQTFAPGTRVYHLIIIVFFFFFCLSSFFASIVMADEYTGEATGSSEAKVHIIYTEKPTDEEPKTYHLRTLSSALGSEEAAKDALIYSYKEAASGFSAKLTPEQVAEISKQPGVIQVVPSQTYQLHKPGGGGGFKLT”, the protein production result is reported as “failed”.
With “MKEDIVSGTVKRVERHGIIVEVVAGKLDALIPRDQMIPRENFRSGDRIRALFLRVEEIGNTGRKQVILSRTSGLEHHHHHH”, the protein production result was “not failed”.
As to “MPNNDSFYKKVLDNLYDGIYFVDEQRRITYWNKGAQMLTGYGEKEVIGRNCHDIFLHLDSNGNGICSDACPIEKTITDGRKRDEESFLHHKDGHLVPVCLRVAPIQDTDGQMVVAVEVTGDHSPRHALRQQLENLQRLALCDPLTTIANRRYVEMSLNSRLEEMRRYGWHFGILFLDVDHFKQINDTHGHDTGDRVLKMVAKTLVNSARSFDVVGRWGGEEFIAVLANISRRQLPRIADRFRHLVEQSSFRLDDRLLRVTVSVGATMSHLDDTVESLVQRADTLMYRSKQAGRNCVSIGFGEEMPETSATPSASP”, the protein production result is recorded as “failed”.
The result for “MQYVMSIIGILVVLGLCFALSNNKSKINFRAIAIMIGFQILIGWFMFGTKIGQQIIIFIGKVFNKLIKLGTTGVDFLFNGIQRDFVFFLNVLLIIVFFSALLSIFSYLGVLPFIVRVVGGAISKITGLPRVESFHAVNSVFFGSSEALIVIKNDLQHFNKNRMFIICCSAMSSVSASVTASYVMMLDAKYVLAALPLNLFSSLIVCSLLTPVDTKKEDEVIQKFDRTLFGDSFIGAMINGALDGLKVAGIVAALMIAFIGVMEVVNYVISAASGAMGHAVTLQQIFGYVLAPFAFLMGIPAQDIIPAGGIMGTKIVLNEFVAILDLKGVAATLSPRTVGIVTVFLISFASISQIGAIVGTIRALSEKQGSVVSKFGWKMLFASTLASILSATIAGLFI” reads “failed”.

The values are drawn from a protein production outcome set (Wang et al. 2014).
